Experimental findings from patent publication CN114395042A (BEIJING COONOXIN ZONGCHENG SCIENCE AND TECH CO, dated 2022) are described below.

Assay [1] has as its target T1, 人IL33-his重组蛋白 (human, UniProt O95760 112-270).
T1 construct: range 112-270; also called human IL-33; not shown: his tag
T1 sequence (looked up): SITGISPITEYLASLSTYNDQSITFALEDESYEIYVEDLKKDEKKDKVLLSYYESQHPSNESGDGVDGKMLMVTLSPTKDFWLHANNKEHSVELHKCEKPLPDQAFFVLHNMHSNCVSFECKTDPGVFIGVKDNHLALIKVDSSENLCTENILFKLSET
Description: BLI (ForteBio), Example 3.

Assay [2] concerns the target T1, 人IL33-his重组蛋白. Description: BLI (ForteBio), antibody captured on AHC probe, IL33-his 15-60 nM in solution, 1:1 fit.
A further assay addresses T2, hIL-33WT (human, UniProt O95760 112-270, limits assumed).
T2 sequence (looked up): T1 sequence (looked up)
Description: cell-based or functional assay.

Numbering of substitutions follows the chain as printed.

B1: ch25D8 (antibody, human IgG1, kappa, V domains shown)
VH: QVQLQQSGTELVKPGASVKLSCKTSGYTFTSYWIQWVKQRPGQGLGWIGEIFPGTGTTYYNEKFKGKATLTTDTSSTTAYMQLSSLTSEDSAVYFCARRIRDYYGSNYFDYWGQGTTLTVSS
VL: QIVLTQSPAIMSASPGEKVTITCSASSSVSYMHWFQQKPGTSPKLWIYRTSNLASGVPDRFSGSGSGTSYSLTISRMEAEDAATYYCLQRSTYLFMFGAGTKLELKR
notes: also called 嵌合抗体ch25D8; 25D8分子的嵌合抗体
As for B1, in the assay with 人IL33-his重组蛋白 [1], binding was put at a Kd of 0.617 nM, the koff turned out to be 0.000472 s⁻¹ and the kon was determined as 766000 M⁻¹ s⁻¹. In the assay with 人IL33-his重组蛋白 [2], this molecule gave a Kd of 0.9 nM, a koff of 7.53e-05 s⁻¹ and a kon of 83600 M⁻¹ s⁻¹.

B2: ch25H12 (antibody, human IgG1, kappa, V domains shown)
VH: EVQLQQSGAELVKPGASVKLSCTASGFNIKDTYIHWVKQRPEQGLEWIGRIDPTADNTKYHPKFQGKATLTADTSSNTAYLQLSSLTSEDTAVYFCARGSSYALDYWGQGTSVTVSS
VL: B1 VL with L88Q, T92S
notes: Human-mouse chimeric IgG1/kappa expressed in HEK293 and purified on Protein A; also called 嵌合抗体ch25H12
In the assay with 人IL33-his重组蛋白 [2], B2 came in with a Kd of 77.7 nM, a koff of 0.000619 s⁻¹ and a kon of 7970 M⁻¹ s⁻¹.

B3: h25D8H1L1 (antibody, human IgG1, kappa, V domains shown)
VH: QVQLVQSGAEVKKPGASVKLSCKTSGYTFTSYWIQWVRQAPGQGLEWIGEIFPGTGTTYYNQKFQGRATLTTDTSTTTAYMELSSLRSEDTAVYFCARRIRDYYGSNYFDYWGQGTTLTVSS
VL: DIQLTQSPSSMSASVGDRVTITCRASSSVSYMHWFQQKPGKAPKLWIYRTSNLQSGVPSRFSGSGSGTDYTLTISSMQPEDFATYYCLQRSTYLFMFGQGTKLELKR
notes: also called 人源化抗体h25D8H1L1; hzVH1/hzVL1
Regarding B3, in the assay with 人IL33-his重组蛋白 [1], binding was put at a Kd of 0.61 nM, the koff worked out at 0.000366 s⁻¹ and the on-rate (kon) was found to be 600000 M⁻¹ s⁻¹. The “IC50 of inhibition of IL-33-stimulated IL-5 production by KU812 cells” value with hIL-33WT came to 0.677 µg/mL.

B4: ANB020 (antibody, V domains shown)
VH: QVQLMQSGAEVKKPGASVKVSCKASGYTFTSYWMHWVRQAPGQGLEWMGTIYPRNSNTDYNQKFKARVTMTRDTSTSTVYMELSSLRSEDTAVYYCARPLYYYLTSPPTLFWGQGTLVTVSS
VL: DIQLTQSPSFLSASVGDRVTLTCKASQDVGTAVAWTQQKPGKAPKLLIYWASTRHTGVPSRFSGSGSGTEFTLTISSLQPEDFATYYCQQAKTYPFTFGSGTKLEIK
notes: The variable regions were cloned into vectors holding human IgG1 light and heavy chain constant regions; also called 对照抗体ANB020; 对照抗体
In the assay with 人IL33-his重组蛋白 [2], B4 came in with a Kd of 6.7 nM, a koff of 0.000419 s⁻¹ and a kon of 62500 M⁻¹ s⁻¹. For the same molecule, the “IC50 of inhibition of IL-33-stimulated IL-5 production by KU812 cells” value with hIL-33WT is 5.82 µg/mL.
